Measured values: patent US20220098328A1, “ANTIBODIES TO M(H)DM2/4 AND THEIR USE IN DIAGNOSING AND TREATING CANCER” (NomoCan Pharmaceuticals LLC, priority 2017, published 2022)
Residue numbers refer to the chain shown, from its start.

What was measured:
Format in all cases: in vivo
[1] = system: mouse Lewis Lung cancer LL/2 cells; test: LL/2 syngeneic mouse model of lung cancer; details: LL/2 s.c. in C57BL/6 mice; 0.4 mg/kg i.p. 3 times a week for 3 weeks, started with tumor cell inoculation; by day 21
Method: Methodology used (Syngeneic Mouse Models of lung, colon and pancreatic cancer): To investigate the anti-tumor effects of HDM2-specific antibodies on lung, colon and pancreatic tumors in vivo, three well-known syngeneic mouse models of lung, colon and pancreatic cancer were used (Sharma et al., 1999, J. Immunol. 163 (9):5020-5028; McIntyre, 2015, Bioassays 37(8):909-920; Li, et al., 2015, Sci. Rep. 5:7856). Subcutaneous tumors were prepared by implanting either mouse Lewis Lung cancer LL/2 cells (2.5×10^5 cells/mouse), mouse colon cancer MC-38 cells (5×10^5 cells/mouse) or mouse pancreatic cancer Panc-2 cells (2×10^6 cells/mouse) in the right flanks of 8-week-old female C57BL/6 mice (n=6-7). The mice were returned to their respective cages after tumor implantation. From day 7 after tumor implantation, the tumor volumes were measured 2 times/week with a digital caliper. In the case of MC-38 and Panc-2 study, treatment started when the tumors reached an average of 70-80 mm^3. In the case of LL/2 study, tumor cell inoculation and treatment were initiated simultaneously. Mice were micro-chipped and registered following tumor implantation. […]

[2] = system: mouse pancreatic cancer Panc-2 cells; test: Panc-2 syngeneic mouse model of pancreatic cancer
Method: Methodology used (Syngeneic Mouse Models of lung, colon and pancreatic cancer): To investigate the anti-tumor effects of HDM2-specific antibodies on lung, colon and pancreatic tumors in vivo, three well-known syngeneic mouse models of lung, colon and pancreatic cancer were used (Sharma et al., 1999, J. Immunol. 163 (9):5020-5028; McIntyre, 2015, Bioassays 37(8):909-920; Li, et al., 2015, Sci. Rep. 5:7856). Subcutaneous tumors were prepared by implanting either mouse Lewis Lung cancer LL/2 cells (2.5×10^5 cells/mouse), mouse colon cancer MC-38 cells (5×10^5 cells/mouse) or mouse pancreatic cancer Panc-2 cells (2×10^6 cells/mouse) in the right flanks of 8-week-old female C57BL/6 mice (n=6-7). The mice were returned to their respective cages after tumor implantation. From day 7 after tumor implantation, the tumor volumes were measured 2 times/week with a digital caliper. In the case of MC-38 and Panc-2 study, treatment started when the tumors reached an average of 70-80 mm^3. In the case of LL/2 study, tumor cell inoculation and treatment were initiated simultaneously. Mice were micro-chipped and registered following tumor implantation. Tumor volume measurements and body weights were recorded and mice were randomized into groups that received: A) mAb NMC-103 at 0.4 mg/kg (3 times a week for 3 weeks), 2 mg/kg (2 times a week for 3 weeks), or 4 mg/kg (2 times a week for 3 weeks); B) NMC-204 at 0.4 mg/kg (3 times a week for 3 weeks); C) isotype control mouse IgG1 (Abcam, Cat. No. ab18447) or IgG3 (Abcam, Cat. No. ab18392) at 0.4 mg/kg (3 times a week for 3 weeks) or 4 mg/kg (2 times a week for 3 weeks); D) Gemcitabine (25 mg/kg) and nab-paclitaxel (5 mg/kg) 2 times a week for 3 weeks; or E) a combination of gemcitabine (25 mg/kg), nab-paclitaxel (5 mg/kg) and mAb NMC-103 (2 mg/kg; 2 times a week for 3 weeks) or (10 mg/kg; 2 times a week for 2 weeks). All tumors were injected subcutaneously and all treatments were performed by intraperitoneal injection. Any mouse displaying prolonged adverse clinical signs, or with body weight loss exceeding 15% relative to body weight at day 0, was euthanized. Tumor measurements from post-treatment with HDM2-specific antibodies versus isotype control mouse antibodies versus standard of care treatment (gemcitabine and nab-paclitaxel) were made, and results are presented in FIGS. 16-19.
The anti-tumor efficacy of NMC-103 and of its combination with pancreatic cancer standard of care treatment Gemcitabine (G) and nab-Paclitaxel (nP) was further evaluated in vivo utilizing the Panc-2 syngeneic mouse model of pancreatic cancer discussed above. In this Panc-2 study, treatment started after Panc-2 cell inoculation and when the tumors reached 80-100 mm^3, with mAb NMC-103 administered at 10 mg/kg, two times a week in a larger number of mice (n=8/group) than that used for the study of FIG. 19.
Evaluation of anti-tumor effects of antibody OP145 on pancreatic tumor growth in vivo: Subcutaneous tumors were prepared by implanting Panc02 cells (2×10^6 per mouse) in the right flanks of female 8-week-old C57BL/6 mice. The mice were returned to their respective cages after tumor implantation. From day 7 after tumor implantation, the tumor volumes were measured 2 times/week with a digital caliper. Treatment started when the tumors reached an average of 200 mm^3 (see FIG. 26, day 14). Mice were micro-chipped and registered following tumor implantation. Tumor volume measurements and body weights were recorded and mice were randomized into two groups that received either OP145 antibody (by intra-tumoral injection of 0.1 mg/kg of mouse monoclonal antibody OP145, 3 times per week) or PBS. Three mice were treated with OP145, and five mice were treated with PBS. Any mouse displaying prolonged adverse clinical signs, or with body weight loss exceeding 15% from Day 0 body weight, was euthanized. Tumor measurements from the first 10 days post treatment with OP145 antibody versus PBS were made, and results are represented in FIG. 26. […]

[3] = system: human lung cancer A549 cells; test: A549 tumors in NSG mice with or without Hu-PBMCs; details: 1 i.p. dose 10 mg/kg, n=4
Method: Subcutaneous tumors were prepared by implanting either mouse colon MC-38 cells (5×10^5 cells/mouse), human lung cancer A549 cells (5×10^6 cells/mouse) or mouse lung cancer M109 cells (0.5×10^5 cells/mouse) in the right flanks of NOD scid gamma mice (NSG: NOD.Cg-Prkdc^scidIl2rg^tm1Wjl/SzJ) purchased from Jacksons Laboratory. From day 7 after tumor implantation, the tumor volumes were measured 2 times/week with a digital caliper. In the case of mouse colon MC-38 cells and human lung cancer A549 cells study in NSG mice, once tumors reached an average volume of 300-400 mm^3, mice were randomly divided into 3 groups (n=4) and 7×10^6 human PBMCs (Stem Cell Technologies Cat #70025) was injected into the tail vein of mice in groups 1 and 3. Seven days later, in the case of mouse colon MC-38 cells study, mAb NMC-C303 antibody (10 mg/kg) was injected intraperitoneally (i.p.) to mice in groups 2 and 3 and human isotype control antibody (BioXCell BP02) into mice in group 1 on days 33 and 35 post tumor inoculation. In the case of human lung cancer A549 cells study, seven days post PBMC injection, mice in group 2 and 3 received 1 intraperitoneal injection of mAb NMC-H103 (VH4/VK3) (10 mg/kg) while mice in group 1 received 1 injection of human isotype control antibody (BioXCell BP02) and tumors were measure 5 days later. […]

B1: NMC-204: mouse monoclonal antibody of the IgG3 isotype that binds to NMC-P2 (SEQ ID NO:2); VH SEQ ID NO:38, VL SEQ ID NO:39 (antibody, V domains shown)
VH: EVQLQESGSVLVRPGASVKLSCKASGDTLSGSWMHWAMQRPGQGLEWIGEIHLNRGTTNYNEKFKGKATVTVDTSSSTAYVDLSSLTSEDSAVYYCARSPGFAYWGQGTLVTVSA
VL: GIVMTQAAPSVPVTPGESVSISCRSSKSLLHSNGNSYLYWFLQRPGQSPQLLIYRMSNLASGVPDRFSGSGSGTAFTLRITRVEAEDVGVYYCMQHLEYPFTFGSGTKLEIK
modifications: mAb NMC-204 Heavy Chain Variable Region; mAb NMC-204 Light Chain Variable Region
- tumor volume [1]: 1446 mm^3

B2: NMC-103: mouse monoclonal antibody of the IgG1 isotype that binds to NMC-P1 (SEQ ID NO:1); VH SEQ ID NO:36, VL SEQ ID NO:37 (antibody, V domains shown)
VH: EVQLQESGGGLVQPGGSLRLSCTTSGFTFTHYYMSWVRQPPGKALEWLGFIRNKAKGYTAEYSASVKGRFTISRDNSQSILYLQMNTLRPEDSATYYCARDIGDNWGQGTLVTVSS
VL: DIVMTQAAFSNPVTLGTSASISCRSSKNLLHSNGITYLYWYLQRPGQSPQLLISRVSNLASGVPNRFSGSESGTDFTLRISRVEAEDVGVYFCAQLLELPYTFGGGTKLEIK
modifications: mAb NMC-103 Heavy Chain Variable Region; mAb NMC-103 Light Chain Variable Region
- average tumor volume ([2]; Panc-2, n=6, start at ~70 mm^3, i.p. 2 times a week for 3 weeks (6th dose day 19), then 2 weeks off, antibody 2 mg/kg, Gemcitabine 25 mg/kg, nab-Paclitaxel 5 mg/kg, by day 35): 1523 mm^3
- average tumor size / measurement ([2]; Panc-02, start at 80-100 mm^3, n=8/group, i.p. 2 times a week for 4 weeks, NMC-103 10 mg/kg, Gemcitabine 25 mg/kg, nab-Paclitaxel 5 mg/kg, by day 34, in NMC-103 groups attributed to scar and inflammation): 230 mm^3
- tumor size 6 days post single i.p. injection ([2]; Panc-2, mice pre-treated with Gemcitabine 25 mg/kg + nab-Paclitaxel 5 mg/kg for 19 days (~450 mm^3), single dose 10 mg/kg, from 438 mm^3): 233 mm^3
- tumor growth during 4 further weeks without drug treatment ([2]; Panc-02 study of FIG. 27, up to 62 days since start): no sign of tumor growth beyond the initial scar size
- Kaplan Meier survival analysis ([2]; conditions of FIG. 27, compared to chemotherapy alone or control antibody): significant survival benefit
- tumor 10 days after re-challenge with Panc-2 cells ([2]; previously treated mice re-challenged at day 62, 2×10^6 cells s.c. left dorsal flank, no further drug): no tumor was observed

B3: NMC-H103 (VH4/VK3): humanized NMC-103 variant, human IgG1, VH4 (SEQ ID NO:299) and VK3 (SEQ ID NO:297) (antibody, V domains shown)
VH: B2 VH with Q5V, G16P, P40A, A44G, Q78K, I80T, T87S, P90A, S93T, T95V
VL: B2 VL with A7T, A8P, F9L, N11S, T17Q, S18P, R44K, N65D, R79K, L109V
modifications: human IgG1 constant regions lacking entries; mAb NMC-H103.VH4Heavy Chain Variable Region; mAb NMC-H103.VK3Light Chain Variable Region
- average tumor volume ([3]; NSG mice in presence of Hu-PBMCs): 784 mm^3
- average tumor volume ([3]; NSG mice in the absence of Hu-PBMCs): 1367 mm^3
